Patent US20240239885A1, “ANTIBODY CONJUGATE COMPRISING ANTI-P-CADHERIN ANTIBODY AND USES THEREOF” (WUXI BIOLOGICS IRELAND LIMITED, priority 2021, published 2024)
Starred links: 1 amine or outer side, 2 acyl side, 3 side chain; linkers in the order of their positions; H or OH if unused. Non-standard residues stand in square brackets, D forms with d. Residues, ends and D or L forms follow the SMILES beside them. *: point of attachment. Dolaproine = CO[C@@H]([C@@H]1CCCN1)[C@@H](C)C(=O)O; Hexanoyl(6-maleimido) = O=C1C=CC(=O)N1CCCCCC(=O)*; Dil = CC[C@H](C)[C@H](NC)[C@@H](CC(=O)O)OC; PABC = O=C(OCc1ccc(N[*:1])cc1)[*:2]; X1 = C[C@@H](N*)[C@@H](O)c1ccccc1; Cit = NC(=O)NCCC[C@H](N)C(=O)O; NMeV = CN[C@H](C(=O)O)C(C)C

Legend:
[1] = system: MDA-MB-453 cells; assay: Cytotoxicity assay of ADC (Cell Titer Glo) on MDA-MB-453; format: cell-based, human; conditions: for IC50: MDA-MB-453 (P-cadherin low expressing), 5 days, read-out: IC50 (nM), ADC toxicity; for Max Inh %: MDA-MB-453, 5 days
[2] = system: HCC-1954 cells; assay: Cytotoxicity assay of ADC (Cell Titer Glo) on HCC-1954; conditions: HCC-1954, 5 days; for IC50: read-out: IC50 (nM), ADC cytotoxicity
[3] = system: NCI-H1650 cells; assay: Cytotoxicity assay of ADC (Cell Titer Glo) on NCI-H1650; format: cell-based, human; conditions: NCI-H1650, 5 days
[4] = system: HCC-70 cells; assay: Cytotoxicity assay of ADC (Cell Titer Glo) on HCC-70; conditions: HCC-70, 5 days; for IC50: read-out: IC50 (nM), ADC cytotoxicity
[5] = system: HT-29 cells; assay: Cytotoxicity assay of ADC (Cell Titer Glo) on HT-29; conditions: for Max Inh %: HT-29, 5 days; for IC50: read-out: IC50 (nM), ADC cytotoxicity, HT-29 (P-cadherin low expressing), 5 days
[6] = system: A549 cells; assay: Cytotoxicity assay of ADC (Cell Titer Glo) on A549; format: cell-based, human; conditions: for IC50: A549 (P-cadherin low expressing), 5 days, read-out: IC50 (nM), ADC toxicity; for Max Inh %: A549, 5 days
[7] = biological target: T1, human P-cadherin expressed on cells (human, UniProt P22223 108-829); assay: FACS on NCI-H1650 cells
T1 sequence (P22223 108-829): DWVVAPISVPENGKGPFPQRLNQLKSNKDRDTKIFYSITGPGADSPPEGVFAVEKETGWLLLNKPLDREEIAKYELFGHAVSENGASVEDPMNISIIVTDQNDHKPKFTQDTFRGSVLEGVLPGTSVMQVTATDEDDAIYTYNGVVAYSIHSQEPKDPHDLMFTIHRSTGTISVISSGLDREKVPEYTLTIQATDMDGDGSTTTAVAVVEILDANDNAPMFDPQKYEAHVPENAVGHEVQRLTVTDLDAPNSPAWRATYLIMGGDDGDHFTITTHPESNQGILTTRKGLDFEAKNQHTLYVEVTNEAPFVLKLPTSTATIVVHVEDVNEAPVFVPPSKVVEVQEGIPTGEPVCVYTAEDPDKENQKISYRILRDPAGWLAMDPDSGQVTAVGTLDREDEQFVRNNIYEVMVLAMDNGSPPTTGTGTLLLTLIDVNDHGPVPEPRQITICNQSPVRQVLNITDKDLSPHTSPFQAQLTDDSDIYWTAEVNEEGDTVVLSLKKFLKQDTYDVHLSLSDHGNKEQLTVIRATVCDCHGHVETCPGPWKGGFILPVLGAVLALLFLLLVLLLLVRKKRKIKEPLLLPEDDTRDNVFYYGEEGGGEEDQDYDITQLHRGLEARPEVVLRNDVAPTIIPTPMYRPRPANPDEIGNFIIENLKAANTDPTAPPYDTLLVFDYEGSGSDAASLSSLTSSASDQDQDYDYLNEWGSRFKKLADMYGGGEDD

[8] = biological target: T2, P-Cadherin ECD domain 1+2+3 (aa 108-461) (human, UniProt P22223 108-461); assay: direct ELISA, coated antigen
T2 construct: range 108-461; also called huCDH3 ECD Domain1 + 2 + 3
T2 sequence (P22223 108-461 limits assumed): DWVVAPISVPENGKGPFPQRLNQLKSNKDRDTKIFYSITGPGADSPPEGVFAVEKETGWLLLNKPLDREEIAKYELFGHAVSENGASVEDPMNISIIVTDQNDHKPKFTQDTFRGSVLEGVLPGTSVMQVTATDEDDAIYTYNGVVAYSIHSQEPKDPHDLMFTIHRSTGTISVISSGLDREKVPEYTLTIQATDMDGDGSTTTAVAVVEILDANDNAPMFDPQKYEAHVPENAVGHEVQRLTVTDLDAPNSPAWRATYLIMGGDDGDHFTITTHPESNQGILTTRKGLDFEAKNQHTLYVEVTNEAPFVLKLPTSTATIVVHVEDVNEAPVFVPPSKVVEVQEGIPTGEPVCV
Description: (§1) The binding domains of the antibody drug conjugates to human P-Cadherin extra cellular domain (ECD) were determined by a direct protein binding ELISA. 96-well high protein binding ELISA plates (Nunc) were coated overnight at 4° ° C. with antigens in coating buffer. All wells were washed three time with PBS/0.5%. Tween-20 (v/v) and all the following wash steps in the assay were performed the same. The wells were then blocked for one hour with 2% BSA (Bovogen)/1×PBS (Ca+/Mg+) (Gibco) and washed three times. For the primary antibody binding, the testing antibodies including the BMKs and our antibodies serially diluted in 2% BSA/1×PBS (Ca+/Mg+) were added to the relevant wells and incubated at ambient temperature for two hours. Plates were washed three times prior to the addition of 100 μL of secondary antibody Goat anti-Human-IgG-F(ab′)2-HRP (Jackson) diluted in 2% BSA/1×PBS (Ca+/Mg+). Plates were incubated at room temperature for one hour, followed by six washes as describe above.
(§2) For the binding detection, 100 μL Tetramethylbenzidine (TMB) Substrate solution (Invitrogen) was added to all wells before stopping the reaction with 100 μL 2M HCl. The extent of the testing Abs binding to P-Cadherin ECD (i.e. huCDH3 ECD, Uniprot ID: P22223 aa108-654), P-Cadherin ECD domain 1 (aa 108-236), P-Cadherin ECD domain 1+2 (aa 108-348), P-Cadherin ECD domain 1+2+3 (aa 108-461), P-Cadherin ECD domain 1+2+3+4 (aa 108-550) proteins were determined by measuring the OD450-OD540 absorbance using the SpectraMax® M5e microplate reader. EC50 values were obtained by the four-parameter non-linear regression analysis using GraphPad Prism software.

[9] = biological target: T3, P-Cadherin ECD domain 1 (aa 108-236) (human, UniProt P22223 108-236); assay: direct ELISA, coated antigen
T3 construct: range 108-236; also called huCDH3 ECD Domain1
T3 sequence (P22223 108-236 limits assumed): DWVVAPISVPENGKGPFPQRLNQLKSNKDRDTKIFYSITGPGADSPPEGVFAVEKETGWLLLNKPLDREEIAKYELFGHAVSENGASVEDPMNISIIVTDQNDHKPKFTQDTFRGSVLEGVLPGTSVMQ
Description: as §1, §2

[10] = biological target: T4, P-Cadherin ECD domain 1+2 (aa 108-348) (human, UniProt P22223 108-348); assay: direct ELISA, coated antigen
T4 construct: range 108-348; also called huCDH3 ECD Domain1 + 2
T4 sequence (P22223 108-348 limits assumed): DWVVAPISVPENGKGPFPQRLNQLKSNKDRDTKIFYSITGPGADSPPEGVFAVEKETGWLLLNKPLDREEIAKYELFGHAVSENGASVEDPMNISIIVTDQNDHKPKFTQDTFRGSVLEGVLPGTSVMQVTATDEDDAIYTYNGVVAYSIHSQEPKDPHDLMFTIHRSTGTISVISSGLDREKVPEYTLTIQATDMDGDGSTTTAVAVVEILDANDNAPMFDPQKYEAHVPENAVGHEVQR
Description: as §1, §2

[11] = biological target: T1, human P-cadherin expressed on cells; assay: FACS on HCT-116 cells
Description: Binding of the ADCs to P-cadherin expressed on HCT-116 cells was determined by flow cytometry analysis using the same procedure as described above. […] 1×10⁵ cells/well (100 μL) were added to each well of a 96-well U-plate (Corning, #3799) and centrifuged at 1500 rpm (Eppendorf, #5810R) for 5 minutes before removing the supernatant. Antibodies serially diluted in 1% BSA/1×PBS (Ca+/Mg+) were added at 100 μL/well to the pelleted cells and incubated at 4° C. for 1 hour. […] Cells were washed two times with 180 μL/well of 1% BSA/1×PBS (Ca+/Mg+) by centrifugation at 1500 rpm for 5 minutes at 4° C. Pelleted cells were resuspended in 100 μL/well Alexa647 conjugated Goat anti-human IgG Fc (Jackson, #109-605-098) 1:500 diluted in 1% BSA/1×PBS (Ca+/Mg+) for 30 minutes at 4° C. in the dark. Cells were then washed two times as described above. After the final wash, cells were resuspended in 100 μL 1% BSA/1×PBS (Ca+/Mg+) and fluorescence values were measured with a FACS Canto II cytometer (BD Biosciences). The amount of cell surface bound anti-P-Cadherin antibody was assessed by measuring the mean fluorescence (MFI).

[12] = biological target: T1, human P-cadherin expressed on cells; assay: FACS on HCT-116 cells after 14 days in human serum at 37 C
Description: (§3) The antibody stability in human serum was tested by FACS. Briefly, human serum was freshly isolated by centrifuging the fresh blood twice at 4000 rpm for 10 minutes. […] As a control, antibodies serum mix was frozen immediately without 37° C. incubation. For the FACS analysis, the samples from different time points were free-thawed simultaneously at 4° C. […] The cells were washed twice with 1% BSA/1×PBS (Ca+/Mg+). Alexa647 conjugated Goat anti-human IgG Fc (Jackson, #109-605-098) 1:500 diluted in 1% BSA/1×PBS (Ca+/Mg+) were added to the cells and incubated at 4° C. for 30 minutes. Cells were washed twice in the same buffer and the mean fluorescence (MFI) of stained cells was measured using a FACS Canto II cytometer (BD Biosciences) and analyzed by FlowJo. Wells containing no antibody or secondary antibody only were used to establish background fluorescence. Four-parameter non-linear regression analysis was used to obtain EC50 values for cell binding using GraphPad Prism6 software.

[13] = biological target: T1, human P-cadherin expressed on cells; assay: FACS affinity test on NCI-H1650 cells, quantitative beads
[14] = biological target: T1, human P-cadherin expressed on cells; assay: FACS on HCT-116 cells after 4 days in human serum at 37 C
Description: as §3

[15] = biological target: T1, human P-cadherin expressed on cells; assay: cell-based or functional assay
[16] = biological target: T5, P-Cadherin ECD (huCDH3 ECD, Uniprot ID: P22223 aa108-654) (human, UniProt P22223 108-654); assay: direct ELISA, coated antigen
T5 construct: range 108-654; also called extracellular domain of human P-cadherin
T5 sequence (P22223 other isoform, or with tags, fused parts or gaps limits assumed): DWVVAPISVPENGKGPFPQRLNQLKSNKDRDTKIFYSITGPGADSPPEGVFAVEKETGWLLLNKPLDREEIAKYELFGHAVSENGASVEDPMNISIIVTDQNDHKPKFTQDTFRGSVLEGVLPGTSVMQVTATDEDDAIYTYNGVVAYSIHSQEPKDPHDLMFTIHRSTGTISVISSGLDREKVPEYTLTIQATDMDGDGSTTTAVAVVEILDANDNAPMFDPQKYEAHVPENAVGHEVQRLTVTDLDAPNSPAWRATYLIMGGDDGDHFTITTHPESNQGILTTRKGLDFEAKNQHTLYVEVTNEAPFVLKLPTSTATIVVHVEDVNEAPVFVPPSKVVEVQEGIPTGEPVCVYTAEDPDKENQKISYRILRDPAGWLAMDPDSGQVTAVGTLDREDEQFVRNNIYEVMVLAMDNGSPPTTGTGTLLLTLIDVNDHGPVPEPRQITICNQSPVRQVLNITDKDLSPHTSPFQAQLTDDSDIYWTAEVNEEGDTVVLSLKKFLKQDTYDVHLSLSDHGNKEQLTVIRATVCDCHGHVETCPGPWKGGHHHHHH
Description: as §1, §2

[17] = biological target: T6, P-Cadherin ECD domain 1+2+3+4 (aa 108-550) (human, UniProt P22223 108-550); assay: direct ELISA, coated antigen
T6 construct: range 108-550; also called huCDH3 ECD Domain1 + 2 + 3 + 4
T6 sequence (P22223 108-550 limits assumed): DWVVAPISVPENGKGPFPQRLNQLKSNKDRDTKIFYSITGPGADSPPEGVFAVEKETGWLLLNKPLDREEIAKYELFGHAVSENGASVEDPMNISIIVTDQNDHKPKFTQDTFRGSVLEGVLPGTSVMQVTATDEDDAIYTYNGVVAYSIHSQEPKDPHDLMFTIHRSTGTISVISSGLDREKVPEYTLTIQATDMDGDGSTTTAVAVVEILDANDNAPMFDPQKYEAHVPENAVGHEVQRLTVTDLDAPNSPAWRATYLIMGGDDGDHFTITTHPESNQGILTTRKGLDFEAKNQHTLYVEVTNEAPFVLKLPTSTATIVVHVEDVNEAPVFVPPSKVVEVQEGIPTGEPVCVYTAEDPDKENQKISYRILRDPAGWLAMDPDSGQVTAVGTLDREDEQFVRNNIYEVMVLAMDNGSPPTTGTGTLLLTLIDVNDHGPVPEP
Description: as §1, §2

[18] = biological target: T1, human P-cadherin expressed on cells; assay: cell-based or functional assay; remark: listed apart in the source
[19] = biological target: T1, human P-cadherin expressed on cells; assay: cell-based or functional assay; remark: listed apart in the source
[20] = biological target: T1, human P-cadherin expressed on cells; assay: cell-based or functional assay; remark: listed apart in the source
[21] = biological target: T1, human P-cadherin expressed on cells; assay: FACS on HCT-116 cells after 1 day in human serum at 37 C
Description: as §3

[22] = biological target: T3, P-Cadherin ECD domain 1 (aa 108-236); assay: direct ELISA on coated huCDH3 ECD Domain1, goat anti-human IgG F(ab')2-HRP detection
Description: as §1, with “Plates were washed three times prior to the addition of 100 μL of secondary antibody Goat anti-Human-IgG-F(ab′)2-HRP (Jackson) diluted in 2% BSA/1×PBS (Ca+/Mg+). Plates were incubated at room temperature for one hour, followed by six washes as describe above.” left out
(§4) For the binding detection, 100 μL Tetramethylbenzidine (TMB) Substrate solution (Invitrogen) was added to all wells before stopping the reaction with 100 μL 2M HCl. The extent of the testing Abs binding to P-Cadherin ECD (i.e. huCDH3 ECD, Uniprot ID: P22223 aa108-654), P-Cadherin ECD domain 1 (aa 108-236), P-Cadherin ECD domain 1+2 (aa 108-348), P-Cadherin ECD domain 1+2+3 (aa 108-461), P-Cadherin ECD domain 1+2+3+4 (aa 108-550) proteins were determined by measuring the OD450-OD540 absorbance using the SpectraMax® M5e microplate reader. […]

[23] = biological target: T1, human P-cadherin expressed on cells; assay: FACS on HCT-116 cells after 7 days in human serum at 37 C
Description: as §3

[24] = biological target: T1, human P-cadherin expressed on cells; assay: cell-based or functional assay; remark: listed apart in the source
[25] = biological target: T4, P-Cadherin ECD domain 1+2 (aa 108-348); assay: direct ELISA on coated huCDH3 ECD Domain1+2, goat anti-human IgG F(ab')2-HRP detection
Description: as §1, with “Plates were washed three times prior to the addition of 100 μL of secondary antibody Goat anti-Human-IgG-F(ab′)2-HRP (Jackson) diluted in 2% BSA/1×PBS (Ca+/Mg+). Plates were incubated at room temperature for one hour, followed by six washes as describe above.” left out
as §4

## CC[C@H](C)[C@@H]([C@@H](CC(=O)N1CCC[C@H]1[C@H](OC)[C@@H](C)C(=O)N[C@H](C)[C@@H](O)c1ccccc1)OC)N(C)C(=O)[C@@H](NC(=O)[C@@H](NC)C(C)C)C(C)C [Free drug (MMAE), mono-methyl auristatin E] (H-[NMeV]V[Dil][Dolaproine]-X1)
[1]
  IC50: 1.28 nM
  Max Inh %: 96.7%
[2]
  Max Inh %: 97.7%
  IC50: 0.05 nM
[3]
  Max Inh %: 81%
[4]
  Max Inh %: 87.2%
  IC50: 0.23 nM
[5]
  Max Inh %: 95.5%
  IC50: 0.52 nM
[6]
  IC50: 1.37 nM
  Max Inh %: 89.2%

## Isotype control (non-related hIgG1 antibody)
[7]
  Max MFI: 331 MFI
[8]
  Max OD: 0.015 OD450-OD540
[9]
  Max OD: 0.014 OD450-OD540
[10]
  Max OD: 0.014 OD450-OD540
[11]
  Max MFI: 402 MFI

## CC[C@H](C)[C@@H]([C@@H](CC(=O)N1CCC[C@H]1[C@H](OC)[C@@H](C)C(=O)N[C@H](C)[C@@H](O)c1ccccc1)OC)N(C)C(=O)[C@@H](NC(=O)[C@H](C(C)C)N(C)C(=O)OCc1ccc(NC(=O)[C@H](CCCNC(N)=O)NC(=O)[C@@H](NC(=O)CCCCCN2C(=O)C=CC2=O)C(C)C)cc1)C(C)C [Free payload control (MC-VC-PAB-MMAE), MC-VC-PAB-MMAE] ({Hexanoyl(6-maleimido)}-V[Cit][PABC][NMeV]V[Dil][Dolaproine]-X1)
[1]
  IC50: > 10 nM
  Max Inh %: −0.6%
[2]
  Max Inh %: 20.1%
  IC50: > 10 nM
[3]
  IC50: > 10 nM
  Max Inh %: 1%
[4]
  Max Inh %: 1.3%
  IC50: > 10 nM
[5]
  Max Inh %: −0.1%
  IC50: > 10 nM
[6]
  IC50: > 10 nM
  Max Inh %: −5.4%

B1: W3195-1.53.1-p1-uIgG1L-MMAE (antibody, V domains shown)
VH: QVQLQESGPGLVKPSETLSLTCTVSGGSVISDNYYWTWVRQPPGKGLEFIGYIYYRGSTNYNPSLKNRVIISIDTSRNQFSLDLNSVTAADTAVYYCARDRRTGNSLPFDNWGQGTLVTVSS
VL: SYELTQPPSVSVSPGQTAQITCSGDKLGDKFASWYQQKSGQSPVVVIYQDNKRPSGFPERFSGSNSGNTATLTISGTQAMDEADYYCQAWDSSIVVFGGGTKLTVLG
modifications: MC-vc-PAB-MMAE conjugated to cysteine thiols after TCEP reduction (positions not stated); HIC-DAR 3.86 per antibody
notes: also called W3195-p1-MMAE; WBP3195-p1-ADC
[12]
  EC50: 0.18 nM
[7]
  EC50: 0.075 nM
[13]
  Kd: 0.168 nM
[14]
  EC50: 0.18 nM
[15]
  ADC Cytotoxicity on HCC-70, IC50: 0.065 nM
[16]
  EC50: 0.23 nM
  Max OD: 0.65 OD450-OD540
[8]
  EC50: 0.2 nM
  Max OD: 0.95 OD450-OD540
[9]
  Max OD: 0.19 OD450-OD540
[17]
  EC50: 0.17 nM
  Max OD: 0.75 OD450-OD540
[10]
  Max OD: 0.16 OD450-OD540
[11]
  EC50: 0.17 nM
[18]
  Internalization of NCI-H1650 cells in HCS assay, EC50: 0.22 nM
[19]
  Internalization of HCC-1954 cells in HCS assay, EC50: 0.023 nM
[20]
  ADC Cytotoxicity on HCC-1954, IC50: 0.011 nM
[21]
  EC50: 0.15 nM
[22]
  binding result: no binding (tested: about 20 nM)
[23]
  EC50: 0.17 nM
[24]
  ADC Cytotoxicity on NCI-H1650, IC50: 0.027 nM
[25]
  binding result: no binding (tested: about 20 nM)
